Assay results: EP4751739A1, “ANTIBODY-DRUG CONJUGATE TARGETING C-MET AND MEDICAL USE THEREOF” (Jiangsu Hengrui Pharmaceuticals Co., Ltd., priority 2023, dated 2025)

Target: human c-Met on tumor cell lines (human) (UniProt P08581)
Test: cell-based or functional assay

human c-Met on tumor cell lines (human), sequence (P08581 25-1390): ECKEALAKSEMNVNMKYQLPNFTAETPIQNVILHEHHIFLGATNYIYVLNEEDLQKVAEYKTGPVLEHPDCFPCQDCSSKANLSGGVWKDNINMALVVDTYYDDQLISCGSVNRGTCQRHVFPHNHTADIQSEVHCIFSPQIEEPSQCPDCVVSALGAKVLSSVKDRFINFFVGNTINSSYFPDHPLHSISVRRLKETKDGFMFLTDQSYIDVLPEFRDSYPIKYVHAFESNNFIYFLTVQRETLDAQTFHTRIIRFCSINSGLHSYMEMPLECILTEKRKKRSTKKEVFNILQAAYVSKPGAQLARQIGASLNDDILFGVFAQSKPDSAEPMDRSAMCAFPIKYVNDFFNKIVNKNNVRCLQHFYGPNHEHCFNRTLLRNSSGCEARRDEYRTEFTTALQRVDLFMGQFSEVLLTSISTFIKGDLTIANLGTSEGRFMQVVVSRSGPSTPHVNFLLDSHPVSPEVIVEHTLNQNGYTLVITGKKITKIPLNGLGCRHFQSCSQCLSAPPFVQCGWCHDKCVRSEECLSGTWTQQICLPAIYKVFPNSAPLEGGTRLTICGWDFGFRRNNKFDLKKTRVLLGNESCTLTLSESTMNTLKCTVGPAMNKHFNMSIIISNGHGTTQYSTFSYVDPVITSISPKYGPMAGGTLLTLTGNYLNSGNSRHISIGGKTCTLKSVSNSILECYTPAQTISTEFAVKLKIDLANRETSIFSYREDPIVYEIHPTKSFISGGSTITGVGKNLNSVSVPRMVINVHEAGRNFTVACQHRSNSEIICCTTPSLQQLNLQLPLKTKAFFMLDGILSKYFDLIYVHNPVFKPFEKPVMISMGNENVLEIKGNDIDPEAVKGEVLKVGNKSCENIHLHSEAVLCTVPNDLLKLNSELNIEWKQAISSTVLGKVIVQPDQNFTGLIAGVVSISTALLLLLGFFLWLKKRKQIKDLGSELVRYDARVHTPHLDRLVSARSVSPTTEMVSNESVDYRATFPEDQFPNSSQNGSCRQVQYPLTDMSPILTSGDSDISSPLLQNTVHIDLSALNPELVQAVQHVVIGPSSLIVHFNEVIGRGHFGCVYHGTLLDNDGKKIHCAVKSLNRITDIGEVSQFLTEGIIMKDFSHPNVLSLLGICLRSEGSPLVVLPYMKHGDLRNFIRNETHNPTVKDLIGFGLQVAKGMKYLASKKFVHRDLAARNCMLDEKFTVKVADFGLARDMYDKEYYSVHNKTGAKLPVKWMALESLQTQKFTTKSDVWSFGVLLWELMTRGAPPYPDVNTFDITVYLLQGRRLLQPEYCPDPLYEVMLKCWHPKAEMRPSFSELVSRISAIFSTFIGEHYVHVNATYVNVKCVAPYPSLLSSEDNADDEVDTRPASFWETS

Endocytosis ratio% at 0 h, EBC-1 cells, 20 nM, flow cytometry [%]	Endocytosis ratio% at 0.5 h, EBC-1 cells, 20 nM, flow cytometry [%]	Endocytosis ratio% at 2 h, EBC-1 cells, 20 nM, flow cytometry [%]	Endocytosis ratio% at 4 h, EBC-1 cells, 20 nM, flow cytometry [%]	Endocytosis ratio% at 24 h, EBC-1 cells, 20 nM, flow cytometry [%]	Substance
0	4.36	31.7	58	97.3	Teli-VcMMAE (antibody)
0	5.54	29.3	54.2	97.8	ABT-700 (antibody)
